Consider five molecules from article PMC3817407.

To fix the notation:
B1: AS22_1147 (protein)
chain: MELDDIAVAWRSLEQRLDQHAALAGQVLGDLRSHAARAHLRPLWLSQSAQLLCAIALSGLVAHSWLAFPEQAAAIVGGVLLQIWCVALAASAARQLWLLSQLDFARPLLQTQRALAQLRRWRTRVAPWLGVAFWVLWVAVADAAWRALTGRSLPYAWLLCNLLVGVLGGIGTWLGYRRLQRSGHPWLERLDTVHAGRSVARTETLLEQIARFQRE
B2: AS25_1643_cl43 (protein)
chain: MTTDSNFNDPCRRQFSRDLPQKMARHTNEATGAMDMVKRDRFELLSAYLGGEVTAAERRQVEDWPANDVAVQRLYSRLLKLRQGIRTMPIPTAQQSPETTAEQVFAKVNRRSRLAWKLGGAAVAACVIGAVTNWLPGRQTGIPQLAQQPQEQPTQAVTTPDALPMIALNNPVIEIPKAAVASPTKFIQPQPQLGEIPPDIN
B3: AS20_992 (protein)
chain: MTPERFVHLADAYGADLQRWPSAERAAAQALLDCGDAQAVAALRQAHWLDSQLDRYQVPAPSPALAQRIIAAAQQPGAPFWSRYAGWLASLGWVGVGLTGVAAGMLAVALSLPLSTSAEALPSVFDQSDAEFVLSINAEEAEQ
B4: AS02_915 (protein)
chain: MEKTGQEWVSASVDGETDRQTLAELAADTDSHAKWQRYHLMGDAMRDELPQAMPLDLSARIAAALEDEPTILAPKVEREATQAPSRAVVVPFMRQLGQYGIAAAVALMAVVGVQNYQSTQDDAPLPVLNTRPLVGTATPVSLQTGPVANQNQGNANDQLLEQRRRINAYLQDHMLQQRLNTGAVVDDNSEVTPIPVNR
B5: AS22_4450 (protein)
chain: MELDDMKHAWQTLEQRLDQQAAQTGQLLGVVHEETVRSSLRPLWVAQTAQLLCALALAIVSARSWIPHTDQPVAVIGGVLLQAWCMALAISAMVQLQLLTQFNVAGPLLRTQHALARLRRWRTRVAPWLGVAFWVLWIAVADALWRALTGQTLPTDWLVLNLLVGVAGGIGTWLGFRRLQRAQHPWLERIDRAHAGTGVIRAERMLEEIARFQRD

The first experiment deals with T1, ECF33_423.
T1 chain: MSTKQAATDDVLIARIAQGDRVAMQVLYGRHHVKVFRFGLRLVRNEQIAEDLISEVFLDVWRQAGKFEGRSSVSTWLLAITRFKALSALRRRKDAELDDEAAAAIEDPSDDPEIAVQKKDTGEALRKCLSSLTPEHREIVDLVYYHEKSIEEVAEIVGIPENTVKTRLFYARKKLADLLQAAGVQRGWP
For the molecule B1, the fold repression is 1.76.
Same read-out and setting: in the case of B2 it was 1.23; in that of B3, 1.32.
With B4, the fold repression was 2.28.
Still for that read-out and setting: in the case of B5 it was 1.24.

Another experiment deals with T2, ECF38_1322.
T2 chain: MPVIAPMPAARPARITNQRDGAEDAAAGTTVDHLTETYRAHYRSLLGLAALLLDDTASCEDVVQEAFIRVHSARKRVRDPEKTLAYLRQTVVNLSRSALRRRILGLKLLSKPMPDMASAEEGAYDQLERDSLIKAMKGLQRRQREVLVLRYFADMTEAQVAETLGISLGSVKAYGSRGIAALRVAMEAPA
As for B1, the fold repression amounted to 1.99.
The same measure, in the same setting: under B2 stands 0.931.
Still for that read-out and setting: under B3 stands 1.72.
Still for that read-out and setting: under B4 stands 2.24; under B5, 1.78.

For the next experiment, the target named is T3, ECF16_3622.
T3 chain: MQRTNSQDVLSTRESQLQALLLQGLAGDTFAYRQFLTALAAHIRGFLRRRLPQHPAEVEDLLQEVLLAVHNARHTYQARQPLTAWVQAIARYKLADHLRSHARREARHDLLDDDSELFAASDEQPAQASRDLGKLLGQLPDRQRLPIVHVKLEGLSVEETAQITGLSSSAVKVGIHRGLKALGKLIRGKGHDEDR
For B1, the fold repression turned out to be 2.91.
Consider B2, for which the fold repression came out at 2.26.
Same read-out and setting: in the case of B3 it was 1.71; in that of B4, 4.3; in that of B5, 1.79.

The target of the next experiment is T4, ECF16_973.
T4 chain: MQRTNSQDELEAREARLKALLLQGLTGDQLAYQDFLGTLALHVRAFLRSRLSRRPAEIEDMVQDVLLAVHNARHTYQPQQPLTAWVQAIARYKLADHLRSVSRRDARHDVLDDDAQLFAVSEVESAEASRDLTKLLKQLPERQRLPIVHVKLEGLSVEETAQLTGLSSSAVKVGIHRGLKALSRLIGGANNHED
As for B1, the fold repression turned out to be 2.57.
Regarding B2, the fold repression was found to be 1.22.
Still for that read-out and setting: in the case of B3 it was 1.7; in that of B4, 3.34.
Consider B5, for which the fold repression came out at 1.71.

Another experiment has as its target T5, ECF34_1384.
T5 chain: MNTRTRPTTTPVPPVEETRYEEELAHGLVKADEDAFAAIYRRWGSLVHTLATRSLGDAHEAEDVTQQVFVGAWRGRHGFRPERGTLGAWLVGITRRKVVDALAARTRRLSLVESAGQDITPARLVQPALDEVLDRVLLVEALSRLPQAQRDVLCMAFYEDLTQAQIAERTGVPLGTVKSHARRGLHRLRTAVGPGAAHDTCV
In the case of B1, the fold repression was 2.09.
On the same count and under the same terms, under B2 stands 2.43.
The same measure, in the same setting: in the case of B3 it was 1.64.
Still for that read-out and setting: in the case of B4 it was 3.28; in that of B5, 1.66.

The target in another experiment is T6, ECF03_1244.
T6 chain: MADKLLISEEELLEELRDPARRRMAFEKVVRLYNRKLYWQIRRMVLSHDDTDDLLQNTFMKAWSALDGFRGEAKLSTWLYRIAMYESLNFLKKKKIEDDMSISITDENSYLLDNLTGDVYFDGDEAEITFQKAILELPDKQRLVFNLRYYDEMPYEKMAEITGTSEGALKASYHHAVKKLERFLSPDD
Regarding B1, the fold repression is 3.22.
For B2, the fold repression turned out to be 1.06.
On the same count and under the same terms, in the case of B3 it was 1.39; in that of B4, 3.01; in that of B5, 1.75.

For the next experiment, the target named is T7, ECF14_3200.
T7 chain: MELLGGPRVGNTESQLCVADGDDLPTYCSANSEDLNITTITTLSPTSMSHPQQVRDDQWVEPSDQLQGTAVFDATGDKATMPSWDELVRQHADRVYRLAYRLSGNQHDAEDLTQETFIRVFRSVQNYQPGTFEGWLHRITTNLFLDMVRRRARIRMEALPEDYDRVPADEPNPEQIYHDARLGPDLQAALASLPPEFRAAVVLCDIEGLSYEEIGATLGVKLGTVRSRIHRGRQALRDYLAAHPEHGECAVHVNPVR
As for B1, the fold repression came out at 5.04.
Same read-out and setting: in the case of B2 it was 5.41; in that of B3, 2.04; in that of B4, 6.23.
Still for that read-out and setting: under B5 stands 1.94.

Another experiment deals with T8, ECF28_1088.
T8 chain: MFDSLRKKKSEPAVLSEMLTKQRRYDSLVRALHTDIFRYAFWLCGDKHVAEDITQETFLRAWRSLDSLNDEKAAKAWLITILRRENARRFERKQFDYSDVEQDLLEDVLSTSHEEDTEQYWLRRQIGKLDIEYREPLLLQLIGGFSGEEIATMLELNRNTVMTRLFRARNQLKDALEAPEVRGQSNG
Consider B1, for which the fold repression turned out to be 2.19.
On the same count and under the same terms, in the case of B2 it was 1.48.
The same measure, in the same setting: under B3 stands 2.27; under B4, 2.38.
Same read-out and setting: in the case of B5 it was 1.18.

The target of the next experiment is T9, ECF27_4265.
T9 chain: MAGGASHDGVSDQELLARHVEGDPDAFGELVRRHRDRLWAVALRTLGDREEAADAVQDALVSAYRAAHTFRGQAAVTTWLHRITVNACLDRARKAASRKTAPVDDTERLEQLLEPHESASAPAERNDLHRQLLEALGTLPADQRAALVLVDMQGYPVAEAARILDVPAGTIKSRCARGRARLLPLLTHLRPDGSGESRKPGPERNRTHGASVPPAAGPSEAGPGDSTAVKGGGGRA
As for B1, the fold repression is 1.86.
Same read-out and setting: under B2 stands 0.954; under B3, 1.1.
Same read-out and setting: under B4 stands 2.08; under B5, 1.4.

The next experiment concerns the target T10, ECF30_35.
T10 chain: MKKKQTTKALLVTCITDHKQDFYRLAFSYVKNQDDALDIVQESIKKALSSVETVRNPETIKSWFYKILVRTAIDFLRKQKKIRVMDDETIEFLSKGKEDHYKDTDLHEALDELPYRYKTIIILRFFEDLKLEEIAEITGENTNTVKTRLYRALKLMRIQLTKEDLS
With B1, the fold repression worked out at 2.04.
On the same count and under the same terms, in the case of B2 it was 0.929; in that of B3, 1.61; in that of B4, 2.79.
For B5, the fold repression was found to be 1.54.

The target in the next experiment is T11, ECF11_3726.
T11 chain: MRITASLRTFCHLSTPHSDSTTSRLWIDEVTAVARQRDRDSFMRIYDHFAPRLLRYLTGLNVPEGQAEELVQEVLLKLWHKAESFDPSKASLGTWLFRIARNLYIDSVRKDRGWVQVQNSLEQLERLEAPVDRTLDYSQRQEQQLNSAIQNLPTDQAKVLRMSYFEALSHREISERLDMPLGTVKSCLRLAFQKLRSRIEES
With B1, the fold repression turned out to be 3.72.
On the same count and under the same terms, under B2 stands 4.29; under B3, 1.91; under B4, 7.44.
Regarding B5, the fold repression stood at 1.93.

The target of another experiment is T12, ECF37_2513.
T12 chain: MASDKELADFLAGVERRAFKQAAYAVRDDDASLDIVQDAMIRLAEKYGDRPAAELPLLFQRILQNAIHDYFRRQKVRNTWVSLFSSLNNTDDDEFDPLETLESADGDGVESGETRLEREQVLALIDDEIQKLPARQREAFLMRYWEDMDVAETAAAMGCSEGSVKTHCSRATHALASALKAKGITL
As for B1, the fold repression amounted to 3.66.
On the same count and under the same terms, in the case of B2 it was 1.9; in that of B3, 1.98.
For the molecule B4, the fold repression is 2.48.
Same read-out and setting: under B5 stands 1.51.

The target in a further experiment is T13, ECF28_1040.
T13 chain: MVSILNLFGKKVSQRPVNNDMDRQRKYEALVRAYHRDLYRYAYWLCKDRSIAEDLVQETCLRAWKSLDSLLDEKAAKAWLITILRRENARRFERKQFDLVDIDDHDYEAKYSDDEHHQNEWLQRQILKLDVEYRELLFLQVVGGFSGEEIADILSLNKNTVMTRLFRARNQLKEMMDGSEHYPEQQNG
Consider B1, for which the fold repression amounted to 1.78.
Still for that read-out and setting: under B2 stands 1.09.
Still for that read-out and setting: in the case of B3 it was 2.12.
The same measure, in the same setting: in the case of B4 it was 2.03.
With B5, the fold repression was found to be 1.4.

For a further experiment, the target named is T14, ECF03_1198.
T14 chain: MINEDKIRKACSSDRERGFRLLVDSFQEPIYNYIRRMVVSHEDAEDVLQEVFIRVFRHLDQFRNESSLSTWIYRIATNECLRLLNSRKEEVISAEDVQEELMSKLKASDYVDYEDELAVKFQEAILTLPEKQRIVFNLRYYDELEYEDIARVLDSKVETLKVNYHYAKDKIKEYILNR
Consider B1, for which the fold repression came to 2.82.
Still for that read-out and setting: under B2 stands 1.92; under B3, 1.53.
The same measure, in the same setting: in the case of B4 it was 3.28; in that of B5, 2.46.
